B1: Xpress-tagged JNK-1 (protein)
chain: MEERLSTTSSYPSHPGRSVEEDHNTLLASSSISSIIRGTRGHLNNFIESVGNWLVPSSSGRDDDAVSLDSCQSVYSPVRHHINSGTGGGILMEPSSIHVPENYYSVTIGEAQMVVLKRYQNLRLIGSGAQGIVCSAFDTVRNEQVAIKKLSRPFQNVTHAKRAYRELKLMSLVNHKNIIGILNCFTPQKKLDEFNDLYIVMELMDANLCQVIQMDLDHERLSYLLYQMLCGIRHLHSAGIIHRDLKPSNIVVRSDCTLKILDFGLARTAIEAFMMTPYVVTRYYRAPEVILGMGYKENVDVWSIGCIFGELIRGRVLFPGGDHIDQWTRIIEQLGTPDRSFLERLQPTVRNYVENRPRYQATPFEVLFSDNMFPMTADSSRLTGAQARDLLSRMLVIDPERRISVDDALRHPYVNVWFDEIEVYAPPPLPYDHNMDVEQNVDSWREHIFRELTDYARTHDIYS
B2: kinase-dead JNK-1 (APF) (protein)
chain: MEERLSTTSSYPSHPGRSVEEDHNTLLASSSISSIIRGTRGHLNNFIESVGNWLVPSSSGRDDDAVSLDSCQSVYSPVRHHINSGTGGGILMEPSSIHVPENYYSVTIGEAQMVVLKRYQNLRLIGSGAQGIVCSAFDTVRNEQVAIKKLSRPFQNVTHAKRAYRELKLMSLVNHKNIIGILNCFTPQKKLDEFNDLYIVMELMDANLCQVIQMDLDHERLSYLLYQMLCGIRHLHSAGIIHRDLKPSNIVVRSDCTLKILDFGLARTAIEAFMMAPFVVTRYYRAPEVILGMGYKENVDVWSIGCIFGELIRGRVLFPGGDHIDQWTRIIEQLGTPDRSFLERLQPTVRNYVENRPRYQATPFEVLFSDNMFPMTADSSRLTGAQARDLLSRMLVIDPERRISVDDALRHPYVNVWFDEIEVYAPPPLPYDHNMDVEQNVDSWREHIFRELTDYARTHDIYS

How the values were obtained:
[1] = target: GST-c-Jun (1-79)
Chain of GST-c-Jun (1-79) (P05412 1-79): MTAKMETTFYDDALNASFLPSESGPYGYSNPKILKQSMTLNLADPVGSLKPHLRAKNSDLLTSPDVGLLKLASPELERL

[2] = target: His-DAF-16 (C-terminal fragment), O16850
Chain of His-DAF-16 (C-terminal fragment), O16850 (O16850 whole entry, looked up, the tested form may be a part): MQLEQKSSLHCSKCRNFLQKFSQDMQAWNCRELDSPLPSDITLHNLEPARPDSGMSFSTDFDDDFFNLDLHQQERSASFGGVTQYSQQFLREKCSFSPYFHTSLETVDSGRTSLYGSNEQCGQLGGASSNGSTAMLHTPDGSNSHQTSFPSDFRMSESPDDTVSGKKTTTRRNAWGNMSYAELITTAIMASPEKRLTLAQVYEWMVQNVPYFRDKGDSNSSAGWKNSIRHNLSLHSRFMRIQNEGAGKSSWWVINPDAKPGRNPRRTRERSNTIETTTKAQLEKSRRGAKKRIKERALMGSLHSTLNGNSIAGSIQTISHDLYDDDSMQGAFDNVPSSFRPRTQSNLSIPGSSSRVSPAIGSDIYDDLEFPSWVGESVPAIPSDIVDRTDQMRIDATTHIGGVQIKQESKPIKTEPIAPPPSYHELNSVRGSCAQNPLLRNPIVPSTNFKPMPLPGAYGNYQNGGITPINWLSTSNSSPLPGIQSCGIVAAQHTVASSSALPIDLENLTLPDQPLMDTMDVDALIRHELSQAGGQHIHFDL

[3] = target: His-DAF-16 (N-terminal fragment), O16850
Chain of His-DAF-16 (N-terminal fragment), O16850 (O16850 whole entry, looked up, the tested form may be a part): as above

Protein | in vitro kinase assay (phosphorylation, [γ-32P]ATP, autoradiography) [1] | in vitro kinase assay (phosphorylation, [γ-32P]ATP, autoradiography) [2] | in vitro kinase assay (phosphorylation, [γ-32P]ATP, autoradiography) [3]
B1 | JNK-1 phosphorylates DAF-16 as well as the mammalian c-Jun protein used as a positive control | The phosphorylation was only observed with the N-terminal (83-307) fragment of DAF-16, but not with the C-terminal (255-470) fragment (data not shown) | Upon activation of JNK-1 by UV, JNK-1 phosphorylates DAF-16
B2 | – | – | The kinase-dead JNK-1 (APF) failed to phosphorylate DAF-16

— patent publication US20060272039
